Measured values: the NTF2 design screens of Basanta et al. (2020)

Assay: protease stability score; higher = more stable; yeast display proteolysis, trypsin and chymotrypsin;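 also: relative to predicted unfolded state with 0 unfolded-like and 1 meaning tenfold more protease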

Sequence	protease stability score
DEEDELFEIFIREWRRLVKTGNFKEIVDNADPHAKSVINGKELVGREHMSRLMLELGIKYYDERSWDVYGDKVVIHGREKFNGRESESIVFAEKVNGRWVLTKVEIR	1.45
DEEDELLERTLKEVAHAWRTGDWRRIEEMFDPNARVDINGVNFVGREEMHRILHEMRIEIEDFKLRRKRIVDGRLELDGEMLGIFRQGDKERRHRSRVFIVILKIDGRWVFEEVRFH	2.43
DEEDELLMKVLTEWFHALRTGDEEKLDELADPNVRIEIGDKELHGMEVWQEYLRRYDHDRQDKVHFRTHEKQGNKLILDVEEDVVIEVNGKRIRTHVRSEIILVKINGRWVFTSIIVH	1.34
DEEDELMKEYFELFWRDLLTGNEELLENLVDPHVRVKVGDKEFHGRHLLSKLASDMGVDHIQIEDMRVQGDKLSIDTTVDVNGKRRRMTLRARKVNGRWFFTELEVR	1.5
DEEDELSEELSRFSLKTLRTGDEDLLSRNMDPHVRMDIDGQDLHGREHVIKFLKDWNRMFGIKHTELKHVRIQGNWIEIHARIQVGDKEMDLRIYAVKIDGRWLVHSIEVEKK	0.182
DEEDELSHQIAEEFFRFFSTGNEEKSKELLDPDVRVESEDHHDHGMHKLLHLWNRIDHIHMRSRHVEFDRVGDFLEIRMRGHVILDVNGVRTEIDTELLLVVTKFDGRWLMHEVKFIIR	0.696
DEEDEMAISLAKLFVDDLMTGNWRSLQHLLDPHTRLHVGDKEHHGRQKSVEWLKDLVRRIDHLEMDIHRLDVQGEKAESETESNVNIGDKEVRYHMELIILVVNGRVKEIEIRLG	0.941
DEEDEQAKELSRIMMEVLRTGDEDMFTKLLDPNVRLEIGEKEDHGRERAMHWLIRFLYRIPNARFIWRDVDVHRINGRVLDTSDLQVRINGRDFKTFVITHIVKIDGRWRVTKLEVHIE	1.56
DEEDEQLHRFAQLYFEAMVTGDEDLLRHLLDPHVRVHINGRELHGRENMAKWLKDFWDKYKNVQLNLHHIRVIGDKVHMDVEMDVNGREERVHIHVEMIDGVVHSSHHRIE	1.02
DEEDEQREHLLELLFHFLRTGDEELLFRLADPRVRHVWNGRELHGRELVIEILDDELEKMGANHIHIDLERVRMVDGRLDVDGHIVIKIGDKSHFFDMHFHIRKIDGRWVIKDLTIR	0.853
DEEDERLHEFAKLFADLWFTGDEEELHDLIDPHAKLNVDVNGRILDSHGREEFVKVLRKLREHLGVDHVELKDMKVQGDKVIIHGVLIINGRRFDSTLWVYIFNGKIESMEVRMR	1.69
DEEDERNLKLFHLAMLASITGNEELIEQLVDPDVRIEINGRDKHGRETLIKLLERFDHFQWHRFHWRRLEIQGNKIIMLLEVHGTIHIGEFKIKLQTDTISIVTKIDGRWTIKELYIK	1.62
DEEDERSKEAMEHFLENEITGDWKRLHELFDPNARMHINGREYHGREEVTNKFWEHNYRMGVKHVEVRDLEVINGRVHLHVEQDVGEFHIELEVVIKKVNGRWLIEETEIHVR	0.987
DEEDEVLKLAFEFIRHQLETGDEDTLNRYVDPHARFEVNGRDIHGRDRYNRFLEELYRKHGVEIKDVLLQDNKSQGDKIRIDIKINIDVNGREVNFDVHIIALKINGKWIHKRQIDI	0.542
DEEDEYVEKATRFFIKSILTGNEEWVSRLADPHVRLWVGDKEFHGRERYVRVFHEHMRQIRYRDFKLHDIDRQGDKIIVIGRREVEVDGRIDTYEIHIYARKINGRWILESEIVN	0.936
DEEDEYYNMALEHFVKTILTGNWKRFKKLADPHVRMEIDGREHHGREEATKVFNRFDHIKNFDFRDIELQGEKIEVHGELHGTINGKDVHTSFHIIMYKVNGKWEEKEVKFQ	1.28
DEEDHDLELFLQIMTHDMRTGNEDNLTRLLDPHVRLEWNGKEFHGRDVMRFWREELGHDNVEVHMRLKDRELQGDKLIIHGEIIHRYNGREIRLDIHFIAHKVDGKWIARVRNIQ	1.64
DEEDHESHEMMRQHFEAFVTGDFESFTRYADPHVRLIVGDKHFHGRDLIVHVFLRLWHELGVKVSRIKEIHSVGDKMHLDGELHVGDKRFRLLVEARKFDGRWFNKRVELVIL	1.48
DEEDHHLRQIFEELLRALVTGDEEFLEQMADPRTRFILIIDGRRIEWHGREEFFRHFHEWRLRNYRITHLESYNGRIRVEGEVDENFNGKERHTKTHHTIIVINGRLHSIVLNIH	1.72
DEEDHILLEIMRRVFESIMTGDEDLFRELADPNVRIRIGNKEMVGWEHIVKTLRKEDEDLGAKHKSFTLDDEDLIGNYAHVEGTLHIEFNGKDIHRHIRINVEVIDGRVKSIRMEDK	0.936
DEEDHLMKHASEMFLHVMKTGDEDTLRRLVDPHVRLDWNGRKWHGRETVTRIIVENIHELGIDHIHLNHFEIYNGQADTNIEVRYNGKREEYHIHMHKVNGRWTVKSIHVTEE	1.5
DEEDKALEESMRTYHESIHTGDEESFRLLFDPDVRMRINGVDLHGREAMEWMSERIDHLELRRIRFRSIETQGNKIRIDGHEDIEILVDGKRMRVIDRVIIQAVKVNGRWTIKSIKFG	1.15
DEEDKDLHRWLEESTHAMLTGDEQHLTELADPNVKFNFDGREIHGREEYVKFMHRWIRHAGFKHIHVETKDVRVQGNKLHVDTHSIHDYNGRRVRTDTRVFVEKINGRWRLHSIEIE	1.4
DEEDKEAHEMVNDALQDFLTGDEDSLRNLVDPNARFEAENHHLIGMETVEWHIREFKNVTIEVKRVDVEVQGDKAILRMNIDIRVNGKTIDEHWEVHVRKFNGQWIITIVKVEFR	2.17
DEEDKFSREAIELWIRVLETGNEHLLHKLADPHVRVVFNGKESVGMEEFVEVLREIRIHTSRDRHVRLQGDKVDVDSIIDGEVNGVRTKVETQLIATKIDGRWVNQQVNWR	0.23

Sequence	protease stability score
DEEDKHADWIMKQMVDLWTTGDEETSITLLDPNVKLHVDGRDIHGREKAMEWLRRFIVHLRIEIIIRHFDFQGNFARFHGELEIRIGDKSQVLETRLEIIVVNGKFRILEIELR	2.71
DEEDKHLIDMFRILMRTIETGNEEETRKLMDPHTIIEIGDKRSHGWESWKKFIEDLERRFDHVRIEIEDVKVQGDKAIVRTRLKLIVGDKHFEHDTRIFVVMVNGRIHTFRVEID	1.48
DEEDKHLQEMVEKLVKNWLTGDWDKLRELLDPNTKSNIGEYTSIGWEKDAEAFEKLIHELGIKHMNFLIRRIHVVDGRAHSDVEIELEVDGRNTEVKTHLIVVIINGRVKSITVEYK	0.297
DEEDKKVKYFLNEWLHAVKTGDEEHLKRLADPRTYEQVGDKHYHGRETFRRFLHDLLEEMRFHRIHIKFSQMVNGVFYVNGELDGTFDGRRHRTDMRLEFEVVNGRIHELRIEIV	1.18
DEEDKLSKEFSRTWEEIWRTGDEQEIKHLADPDTRDLVYIDGVNIDNHGREEMSRSMREWRDKFKNAREHVTHSRAQGDKVEMRIRIDFNGREIDMIVKIIVVDGRLKEFEIEIR	1.56
DEEDKMAEFFMRLIFRAWLTGDEEELEKFMDPNTKHNLDIDGRNDHQIGRHEIVHHLKHFWRRYDHVQVKIRKYHIQGEKAHLHGHLILFIDGVEIRHNIEIRVVVINGRVHSVTMHIH	1.79
DEEDKMVRVLVELWVENFITGDEEKLYELMDPDTRLEIDGVENHGMEKAIEFLERHREHYGVDHIHLIIHEVKHQGNKAHIDGILEFRQGDKQIELHWELHFEVVNGRMKEVHVNTR	2.29
DEEDKNTHEFARRIIESWVTGDWKDLHELIDPHARLILDVGNKKEIYHGREEVKRRLLREIEKFKNVRFEIRDLHVVGDKVDAEVTLHIDGKDIEIHIHLLIVNGKVKEIRLHYH	2.27
DEEDKWDELLLEILIRIEKTGDEEKWLRFLDPHVRLDVDGQEVHGREEVVRVQKEWKERLGVKHIVIKRTKVVNGRIDMDKVMNVDGVNIKVHYHYHLVNGVLHEVEVRLE	0.992
DEEDKWETHFLKVLEDSLKTGDETSLERMADPTARLSVGDKEHHGRDLLFFWIHKLLREAGVDKVESELHDEERQGEKVIVDIHLRVGDKVLRVIFYIYKYNGQWFIRSIEVE	1.04
DEEDMDEVEKAIRKNDPEKMRDLADENAKASVGDNQFHGRDNVENFMKHLTDHADHVQVDSVEKHNGRVVVNAQLDINGEQIQIVIRIDVHNGKIKRFSIEVRDEEAHHFMREMVS	0.686
DEEDNMMREIWKQLVDNQRTGDEDRLQDLIDPHVRIIINIDGRELRSHGRHELVRWLREMGVDYLDIKSYRLQGDKIETDGTLSIGDKTKEVEVRYNIIDGRTKEVEFHLR	0.167
DEEDQDWERILEELLRSLLTGDEEFIRRLIDPNVRMHIKQGDKRINLHGRDAIEKLLELLHRRIKGVRIEIKRHDIQGDKIYVDGVINIDGKEFKIIIHIIVINGRLHTVSFETE	1.9
DEEDQFTEKITRILHEIHRTGDFEKWEKLADPHVKVVIGEFEQHGRETASWVIEWLARYMGIKHIELRDHRVINGVVHLEHEVKVGDKRIDLELRHFVYDGRLKETEIRFR	0.734
DEEDRDAEFFMRLWMRLHKTGDEDQLRELLDPDVRVRFENREFHGREELIKFIHRHRREARTDVKIRDFRVQGDKVIVHGELILQFDGVRFNHDLILITRKIDGRWRIEEIEVR	1.84
DEEDREAHEAIRILIDLLRTGDFDSLTRLADPHVRLDIGDKRLHGMKDFSRWILELRIHNFDLRHFDLVGDKIHVEGSLHTEFNGKHHEIHIQINITKVNGRWKIDEVTSL	1.63
DEEDREKDDLLRRFITAIYTGDERAIKEYLDPHVRTVFNGQEKHGREEVTTLVWQIMRELGIKVIRTHDEREQGNKVELHLELFVGNKRLEINVFAEKVDGKWILRQFIIKVD	1.2
DEEDRELEEMLELIIHAFKTGDEEIMKRLFDPNTRIRINGREEIGWEHAVKILREWRFRHVILRRKHKQGDKLHYEFEVHGHFDGQQDSVHVRILILKVNGRWIITEYIFV	2.51
DEEDRELERIYQELFEAWLTGNEDDLKKLADPNVRVDINGKDKVGREQEIEDLRRVKNMKVKLEDSDIIGDWITVDVVINFNGREIRMELEWRVINGKVKRVIVRYR	1.2
DEEDRFAEEYIRLLHEIIKTGDWHQLKRMVDPNARWDVNGVDVIGMEEYVRVWKDEIDRFKGLRLHPRIRHVDFINGRIHVHSEKKVEYGDKEETFETKRHIFLFNGVDTHFSIRID	0.278
DEEDRHAEEVFRTLIHAWHTGDEDTLKRMLDPDVKILIGDKDHHGRDFFAREMHEISKHLRVHFELHELDVINGRVHVHGTLVITINGREIRITVHIHVLIVDGRVKLQKWIKV	0.583
DEEDRHLEEFIRLWLHFFFTGDWEFHMKNADPNVKLDAENRSVHGRDDASRTLVEIVRRLGIDHVELKDSHVIDGVIELHLELKIGDKRRTMHIHINIFNGRIRSVRIHFS	1.28
DEEDRKSERVLKEFLHDVLTGDEHTLNRLADPHVRLEVGDKEDHGREKLAKYMVRADHIEHVELRHHHFQGDKIHLHVKIRENVNGREVIFESIEIWLKIDGRWILDSLIVK	0.091
DEEDRQAEHIARLVIEELLTGDEESFSHLVDPDTRSEFDGKEFIGREWFNKWLRRILEEIRFHINPTEIRYQGDKAIVHGRLHLHYNGQDVHITVHYKLIVINGRHKRIKEERS	1.3
DEEDRRAKEIMRLLLEDFHTGNEDSLRELMDPTTRNDLVVNGQEHVIHGRETFAEWESKWIKHLRMNLRLRHVNAFNGQVRLETELNLEVNGRIIILDTEVIVHVYNGRIHSFTHRIK	0.236
